From publication PMC12711160 (Chemmedchem, 2025)
Entries after “also recorded” stand apart in the source; their conditions may differ.

Legend:
[1] = target: human neuropeptide Y (NPY) receptor type 1 (hY1R), in stably transfected COS-7 cells (human) (UniProt P25929)
[2] = target: human neuropeptide Y receptor type 4 (hY4R), in stably transfected COS-7 cells (human) (UniProt P50391)
[3] = target: human neuropeptide Y (NPY) receptor type 1 (hY1R), in stably transfected COS-7 cells (human) (UniProt P25929); remark: listed apart in the source
[4] = target: human neuropeptide Y receptor type 4 (hY4R), in stably transfected COS-7 cells (human) (UniProt P50391); remark: listed apart in the source
[5] = DMEM/Ham‘s with 15% FBS, pH = 8.01
[6] = luciferase reporter gene assay medium (DMEM/Ham‘s w/o phenolred, w/o FBS, pH = 7.41)
[7] = DMEM/Ham‘s w/o FBS, pH = 7.04
[8] = human blood plasma/DPBS (Biowest; 1:1, v/v); details: 37 °C, up to 72 h
ERα [9] = test: Luciferase reporter gene assay, HEK293 cells expressing hY1R-eYFP, ERα-pEGFP and 3xERE-TATA-luciferase; type: cell-based; details: ERα and ERE-luciferase, stimulation 24 h, normalized to 4-OHT, at least three independent experiments, n. d. = could not be determined
From the text: B) ERα‐pEGFP and TATA‐luciferase.
Therefore, we tested HEK293 cells that transiently express hY1R, ERα, and an ERα activity‐dependent luciferase. ERα forms dimers and translocates into the nucleus upon activation, where it binds to the estrogen response element (ERE) upstream of the luciferase gene and induces luciferase expression.

ERα [10] = test: Luciferase reporter gene assay, control HEK293 cells expressing only ERα-pEGFP and TATA-luciferase (w/o hY1R); details: read-out: EC50 luciferase reporter gene assay, w/o hY1R; HEK293 cells expressing ERα and ERE-luciferase but not hY1R; stimulation 24 h; normalized to 4-OHT; n. d. = could not be determined
Method: Values were normalized to the native ligands (NPY for hY1R and hY2R, hPP for hY4R). Data points represent mean ± SEM from n ≥ 2 independent experiments with technical triplicates. Luciferase reporter gene assay in transiently transfected HEK293‐cells expressing hY1R‐eYFP. […] Data points represent mean ± SEM from n ≥ 3 independent experiments with technical triplicates. Calculated pEC50‐ and Emax‐values are shown as bar graphs.
HEK293‐cells were transiently transfected with 0.083 µg/well hY1R‐eYFP‐pVitro2, pEGFP‐c1‐ERα (kindly provided by Michael Mancini (Addgene plasmid #28230; http://n2t.net/addgene:28230; RRID:Addgene_28230))^[ [58] ^] and 3xERE‐Tata‐Luc (kindly provided by Donald McDonnell (Addgene plasmid #11354; http://n2t.net/addgene:11354; RRID:Addgene_11354))^[ [59] ^] parallel to cell seeding. For a control experiment without hY1R‐expression, pEGFP‐N1 together with pEGFP‐c1‐ERα and 3xERETata‐Luc was transfected instead. Lipofectamine2000 (Invitrogen) was used as a transfection reagent according to the manufacturer's protocol. […] Luciferase activity was detected with ONE Glo Luciferase Assay System (Promega) following the manufacturer's specifications. Each concentration was measured at least in technical triplicates and relative luminescence units (RLU) were obtained by normalization to free 4‐OH‐Tmx. Concentration response curves were calculated with Graph Pad Prism 9.

[11] = target: human neuropeptide Y receptor type 5 (hY5R), in stably transfected COS-7 cells (human) (UniProt Q15761)
[12] = target: human neuropeptide Y receptor type 5 (hY5R), in stably transfected COS-7 cells (human) (UniProt Q15761); remark: listed apart in the source
hY4R‐eYFP (human) = hY4R‐eYFP (human) (UniProt P50391)
hY4R‐eYFP (human), sequence (P50391 whole entry): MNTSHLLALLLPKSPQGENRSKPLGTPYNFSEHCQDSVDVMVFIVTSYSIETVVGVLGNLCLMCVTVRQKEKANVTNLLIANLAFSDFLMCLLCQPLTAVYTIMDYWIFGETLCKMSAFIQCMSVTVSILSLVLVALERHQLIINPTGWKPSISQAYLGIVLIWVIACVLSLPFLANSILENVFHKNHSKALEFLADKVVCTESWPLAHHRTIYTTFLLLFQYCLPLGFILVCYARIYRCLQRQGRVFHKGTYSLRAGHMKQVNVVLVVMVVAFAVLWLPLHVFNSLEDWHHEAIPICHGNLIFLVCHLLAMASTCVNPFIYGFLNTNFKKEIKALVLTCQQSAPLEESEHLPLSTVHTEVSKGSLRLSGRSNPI

human neuropeptide Y (NPY) receptor type 1 (hY1R), in stably transfected COS-7 cells (human), sequence (P25929 whole entry): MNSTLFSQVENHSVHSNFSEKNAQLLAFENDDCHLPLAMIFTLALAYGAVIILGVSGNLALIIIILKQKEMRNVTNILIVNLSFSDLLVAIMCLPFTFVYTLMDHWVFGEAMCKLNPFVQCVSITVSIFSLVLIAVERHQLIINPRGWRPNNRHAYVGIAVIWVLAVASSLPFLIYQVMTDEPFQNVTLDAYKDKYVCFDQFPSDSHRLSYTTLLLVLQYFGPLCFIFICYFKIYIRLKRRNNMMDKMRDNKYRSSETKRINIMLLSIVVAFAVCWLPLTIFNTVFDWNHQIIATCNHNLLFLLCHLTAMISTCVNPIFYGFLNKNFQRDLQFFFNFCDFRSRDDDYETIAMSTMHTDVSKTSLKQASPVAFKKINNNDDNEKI
human neuropeptide Y receptor type 4 (hY4R), in stably transfected COS-7 cells (human), sequence (P50391 whole entry): as the sequence (P50391 whole entry) above
human neuropeptide Y receptor type 5 (hY5R), in stably transfected COS-7 cells (human), sequence (Q15761 whole entry): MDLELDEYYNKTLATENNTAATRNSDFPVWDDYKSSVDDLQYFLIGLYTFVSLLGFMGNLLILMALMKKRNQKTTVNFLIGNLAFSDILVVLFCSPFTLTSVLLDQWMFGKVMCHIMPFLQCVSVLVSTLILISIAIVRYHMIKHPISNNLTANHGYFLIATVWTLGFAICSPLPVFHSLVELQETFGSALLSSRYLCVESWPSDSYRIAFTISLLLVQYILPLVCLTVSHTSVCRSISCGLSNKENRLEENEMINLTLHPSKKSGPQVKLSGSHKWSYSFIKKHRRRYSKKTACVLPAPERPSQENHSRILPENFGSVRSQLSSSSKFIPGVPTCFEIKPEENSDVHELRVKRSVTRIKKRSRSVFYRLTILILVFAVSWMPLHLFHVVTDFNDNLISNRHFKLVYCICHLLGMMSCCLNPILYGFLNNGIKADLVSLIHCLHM

[F^7,P^34]‐pNPY (peptide)
calcium flux assay (receptor activation), EC50 [1]: 0.1 nM | calcium flux assay (receptor activation), EC50 [2]: 0.3 nM | IP1 accumulation assay (G-protein activation), EC50 [3]: 1.2 nM | IP1 accumulation assay (G-protein activation), EC50 [4]: 0.4 nM

[K4(Diamine-4-OHT),F7,P34]-pNPY
fragment found [5]: peptide without 4-OHT | fragment found (DPBS, pH = 7.4): peptide without 4-OHT | fragment found [6]: peptide without 4-OHT | fragment found [7]: peptide without 4-OHT

YPSK(GFL-G(13C2,15N)- COCH2-4-OHT)PDFPGEDAPA(13C3,15N)EDLARYYSALRHYINL(13C6,15N)ITRPRY-NH2
cleaved bond [8]: Y1-P2; also recorded: P2-S3; also recorded: Y21-S22; also recorded: L24-R25; also recorded: L30-I31; also recorded: R35-Y36

YPSK(COCH2-4-OHT)PDFPGEDAPAEDLK(Tam)RYYSALRHYINLITRPRY-NH2
cleaved bond [8]: R35-Y36, minor

4‐OHT conjugate 1 of [F^7,P^34]‐pNPY (w/o linker) (peptide)
calcium flux assay (receptor activation), EC50 [1]: 0.1 nM | calcium flux assay (receptor activation), EC50 [2]: 0.6 nM

CC/C(=C(\c1ccc(O)cc1)c1ccc(OCCN(C)C)cc1)c1ccccc1 [4‐OHT, 4‐hydroxytamoxifen]
EC50 (ERα [9]): 9.4 nM | EC50 (ERα [10]): 5.8 nM

porcine neuropeptide Y (pNPY) (from UniProt P01304 10-45)
calcium flux assay (receptor activation), EC50 [11]: 7.2 nM | IP1 accumulation assay (G-protein activation), EC50 [12]: 3.4 nM

APLEPVYPGDNATPEQMAQYAADLRRYINMLTRPRY [human pancreatic polypeptide (hPP)]
calcium flux assay (receptor activation), EC50 [2]: 0.1 nM | arrestin-3 recruitment to the receptor (NanoBRET), EC50 (hY4R‐eYFP (human)): 3.9 nM | IP1 accumulation assay (G-protein activation), EC50 [4]: 0.2 nM
